# Measurements reported in PMC4255369, “Identification of structural determinants on tau protein essential for its pathological function: novel therapeutic target for tau immunotherapy in Alzheimer’s disease” (Alzheimer's Research & Therapy, 2014).
# T1: tau 330–335 (6-mer peptide from MTBR3) (Homo sapiens)
# T1 construct: human tau residues 330-335; numbers count on: the longest human tau isoform (2N4R); also called HKPGGG; source: synthetic peptide, bought: EZBiolab (>95% purity)
# T1 chain: HKPGGG
# T2: tau 299–304 (6-mer peptide from MTBR2, identical to tau 362–367 from MTBR4) (Homo sapiens)
# T2 construct: numbers count on: the longest human tau isoform (2N4R); source: synthetic peptide, bought: EZBiolab (>95% purity)
# T2 chain: HVPGGG
# T3: tau 268–273 (6-mer peptide from MTBR1) (Homo sapiens)
# T3 construct: numbers count on: the longest human tau isoform (2N4R); also called HQPGGG; source: synthetic peptide, bought: EZBiolab (>95% purity)
# T3 chain: HQPGGG
# B1: monoclonal antibody DC8E8 (antibody, V domains shown)
# VH: QVQLQQSGPELVKPGTSVKMPCKASGYIFTDYVISWVKQRTGQGLEWIGEIFPRSGSTYYNEKFKGKATLTADKSSNTAYMQLSSVTSEDSAVYFCARDYYGTSFAMDYWGQGTSVTVSS
# VL: DIVMSQSPSSLAVSAGEKVTMSCKSSQSLLNSRTRKNYLAWYQQKPGQSPKLLIYWASTRESGVPDRFTGSGSGTDFTLTISSVQAEDLAVYYCKQSFYLRTFGGGTKLDIK
# notes: the Fab of DC8E8 is deposited as PDB 4OZ4 (heavy chain of the Fab); the Fab of DC8E8 is deposited as PDB 4OZ4 (light chain); The crystal structure (4OZ4) is of the papain Fab without antigen; also called mAb DC8E8; source: mouse hybridoma (Balb/c spleen cells fused with NS0); hybridoma culture supernatant (indirect ELISA); purified antibody (protein G Sepharose)
# Legend:
# Settings in all cases: both partners purified
# [1] = target: T1, tau 330–335 (6-mer peptide from MTBR3); experiment: ELISA; competitive ELISA; plates coated with 250 ng/well purified tau 151-391/4R; DC8E8 0.6 μg/ml (3.8 nM), 60 μl mixed with 40 μl of 200 μM peptide, 1 hour at 25°C, then 1 hour at 25°C on the plate
# [2] = target: T2, tau 299–304 (6-mer peptide from MTBR2, …); experiment: as above
# [3] = target: T3, tau 268–273 (6-mer peptide from MTBR1); experiment: as above
# [4] = target: T4, human tau protein isoform 2N3R (Homo sapiens, UniProt P10636-5); experiment: SPR; Biacore 3000, CM5; DC8E8 captured (230 to 250 RU) by coupled polyclonal anti-mouse antibody; twofold serial dilutions of tau proteins injected at 50 μl/min; 25°C, PBS pH 7.4 with 0.005% P20; fitted to a two-phase reaction model
# T4 construct: human tau, isoform 2N3R (three repeats, two N-terminal inserts); also called three-repeat tau protein isoform 2N3R; full-length three-repeat tau protein
# [5] = target: T5, mis-disordered tau 151-391/3R (Homo sapiens, UniProt P10636-5); experiment: as above
# T5 construct: numbers count on: the longest human tau isoform (2N4R); also called three-repeat mis-disordered truncated tau protein
# [6] = target: T6, human tau protein isoform 2N4R (Homo sapiens, isoform 2N4R (Tau-F, 441 …, UniProt P10636-8)); experiment: as above
# T6 construct: human tau, longest isoform 2N4R (four repeats, two N-terminal inserts); also called full-length tau isoform 2N4R; physiological tau
# [7] = target: T7, mis-disordered tau protein 151-391/4R (human, UniProt P10636-8); experiment: as above
# T7 construct: numbers count on: the longest human tau isoform (2N4R); source: purified
# T7 sequence (P10636 468-708): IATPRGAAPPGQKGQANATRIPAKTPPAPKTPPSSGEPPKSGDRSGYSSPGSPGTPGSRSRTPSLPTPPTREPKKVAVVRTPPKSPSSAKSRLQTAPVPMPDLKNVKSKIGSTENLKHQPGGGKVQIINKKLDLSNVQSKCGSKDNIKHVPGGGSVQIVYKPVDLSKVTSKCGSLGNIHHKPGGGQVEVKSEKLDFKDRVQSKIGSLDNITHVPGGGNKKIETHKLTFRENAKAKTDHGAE
# T5 sequence (P10636 other isoform, or with tags, fused parts or gaps): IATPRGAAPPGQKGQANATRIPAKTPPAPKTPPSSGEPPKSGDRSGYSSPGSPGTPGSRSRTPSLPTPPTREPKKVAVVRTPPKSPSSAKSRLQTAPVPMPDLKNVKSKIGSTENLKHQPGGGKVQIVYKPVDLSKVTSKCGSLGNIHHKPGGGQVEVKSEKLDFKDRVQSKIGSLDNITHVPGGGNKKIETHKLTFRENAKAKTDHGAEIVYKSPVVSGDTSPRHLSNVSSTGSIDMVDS
# T4 sequence (P10636 other isoform, or with tags, fused parts or gaps): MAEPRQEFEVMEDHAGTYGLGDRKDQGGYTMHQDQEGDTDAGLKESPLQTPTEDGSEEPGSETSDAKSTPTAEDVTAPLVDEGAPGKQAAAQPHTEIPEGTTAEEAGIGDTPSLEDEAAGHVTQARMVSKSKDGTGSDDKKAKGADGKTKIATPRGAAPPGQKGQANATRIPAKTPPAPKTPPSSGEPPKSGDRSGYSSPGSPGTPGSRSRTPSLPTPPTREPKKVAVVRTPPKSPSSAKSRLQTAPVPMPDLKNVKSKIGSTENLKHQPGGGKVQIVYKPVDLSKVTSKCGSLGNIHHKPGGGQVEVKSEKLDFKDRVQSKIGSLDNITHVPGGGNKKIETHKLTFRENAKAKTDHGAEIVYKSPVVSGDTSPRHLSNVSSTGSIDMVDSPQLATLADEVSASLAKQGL
# T6 sequence (P10636 other isoform, or with tags, fused parts or gaps): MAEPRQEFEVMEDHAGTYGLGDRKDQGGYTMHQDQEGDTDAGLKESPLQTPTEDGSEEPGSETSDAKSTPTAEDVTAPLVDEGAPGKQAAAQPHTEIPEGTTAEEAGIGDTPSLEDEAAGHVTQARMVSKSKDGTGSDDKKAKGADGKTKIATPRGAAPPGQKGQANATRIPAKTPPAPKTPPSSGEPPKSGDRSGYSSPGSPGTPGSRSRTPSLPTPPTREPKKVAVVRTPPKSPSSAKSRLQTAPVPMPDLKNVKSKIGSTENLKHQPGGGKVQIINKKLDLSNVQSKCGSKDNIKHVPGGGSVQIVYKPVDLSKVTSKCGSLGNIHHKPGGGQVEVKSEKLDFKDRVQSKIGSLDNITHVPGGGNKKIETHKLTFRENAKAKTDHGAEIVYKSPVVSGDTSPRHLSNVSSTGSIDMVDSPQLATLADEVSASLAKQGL
binder,measurement,setting,value
B1,binding result,[1],binds
same,binding result,[2],binds
same,binding result,[3],binds
same,koff,[4],0.4 s⁻¹
same,kon,[4],28000 M⁻¹ s⁻¹
same,fold affinity against full-length tau isoform 2N3R,[5],25 fold
same,koff,[5],0.08 s⁻¹
same,kon,[5],150000 M⁻¹ s⁻¹
same,koff,[6],0.04 s⁻¹
same,kon,[6],440000 M⁻¹ s⁻¹
same,fold affinity against full-length tau isoform 2N4R,[7],7 fold
same,koff,[7],0.04 s⁻¹
same,kon,[7],2.9e+06 M⁻¹ s⁻¹
